Measured values published in patent US11833164B2, “Methods of treating Fabry disease in patients having a mutation in the GLA gene” (Amicus Therapeutics, Inc., priority 2019, dated 2023).

System: mutant form of α-Gal A expressed in HEK-293 cells
Experiment: HEK assay (GLP HEK / Migalastat Amenability Assay): α-Gal A activity in lysates of transiently transfected HEK-293 cells incubated with or without 10 μM migalastat
Format: cell-based, human
Details: for Absolute increase (% WT) / Relative increase: 10 μM migalastat versus baseline; for Baseline α-Gal A activity (% WT): absence of migalastat; for Baseline α-Gal A activity (% WT) / 10 μM migalastat α-Gal A activity (% WT): percentage of baseline wild-type α-Gal A activity; for Baseline α-Gal A activity (% WT) / Baseline α-Gal A activity / 10 μM migalastat α-Gal A activity / 10 μM migalastat α-Gal A activity (% WT): mean ± SEM; for Baseline α-Gal A activity / 10 μM migalastat α-Gal A activity: lysates of HEK-293 cells transiently transfected with the mutant form; for Baseline α-Gal A activity: incubated 5 days in absence of migalastat; for 10 μM migalastat α-Gal A activity: incubated 5 days with 10 μM migalastat; for 10 μM migalastat α-Gal A activity (% WT): with 10 μM migalastat, 5 days
How it was run: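 HEK-293 cells transiently transfected with mutant α-Gal A and incubated with or without 10 μM migalastat; lysate activity given as nmol free 4-MU released per mg protein per hour. Values are mean±SEM.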

B1: Q306P (protein)
chain: MQLRNPELHLGCALALRFLALVSWDIPGARALDNGLARTPTMGWLHWERFMCNLDCQEEPDSCISEKLFMEMAELMVSEGWKDAGYEYLCIDDCWMAPQRDSEGRLQADPQRFPHGIRQLANYVHSKGLKLGIYADVGNKTCAGFPGSFGYYDIDAQTFADWGVDLLKFDGCYCDSLENLADGYKHMSLALNRTGRSIVYSCEWPLYMWPFQKPNYTEIRQYCNHWRNFADIDDSWKSIKSILDWTSFNQERIVDVAGPGGWNDPDMLVIGNFGLSWNQQVTQMALWAIMAAPLFMSNDLRHISPPAKALLQDKDVIAINQDPLGKQGYQLRQGDNFEVWERPLSGLAWAVAMINRQEIGGPRSYTIAVASLGKGVACNPACFITQLLPVKRKLGFYEWTSRLRSHINPTGTVLLQLENTMQMSLKDLL
- Absolute increase (% WT): 30.0 % WT
- Relative increase: 1.5
- Baseline α-Gal A activity (% WT): 57.4 ± 2.8 % WT
- Baseline α-Gal A activity: 19933 ± 1648 nmol/mg/h
- 10 μM migalastat α-Gal A activity: 29495 ± 1671 nmol/mg/h
- 10 μM migalastat α-Gal A activity (% WT): 87.5 ± 4.8 % WT

B2: K308Q (protein)
chain: MQLRNPELHLGCALALRFLALVSWDIPGARALDNGLARTPTMGWLHWERFMCNLDCQEEPDSCISEKLFMEMAELMVSEGWKDAGYEYLCIDDCWMAPQRDSEGRLQADPQRFPHGIRQLANYVHSKGLKLGIYADVGNKTCAGFPGSFGYYDIDAQTFADWGVDLLKFDGCYCDSLENLADGYKHMSLALNRTGRSIVYSCEWPLYMWPFQKPNYTEIRQYCNHWRNFADIDDSWKSIKSILDWTSFNQERIVDVAGPGGWNDPDMLVIGNFGLSWNQQVTQMALWAIMAAPLFMSNDLRHISPQAQALLQDKDVIAINQDPLGKQGYQLRQGDNFEVWERPLSGLAWAVAMINRQEIGGPRSYTIAVASLGKGVACNPACFITQLLPVKRKLGFYEWTSRLRSHINPTGTVLLQLENTMQMSLKDLL
- Absolute increase (% WT): 30.0 % WT
- Relative increase: 1.5
- Baseline α-Gal A activity (% WT): 59.1 ± 3.8 % WT
- Baseline α-Gal A activity: 24208 ± 1996 nmol/mg/h
- 10 μM migalastat α-Gal A activity: 35663 ± 2680 nmol/mg/h
- 10 μM migalastat α-Gal A activity (% WT): 89.1 ± 5.5 % WT

B3: A307P (protein)
chain: MQLRNPELHLGCALALRFLALVSWDIPGARALDNGLARTPTMGWLHWERFMCNLDCQEEPDSCISEKLFMEMAELMVSEGWKDAGYEYLCIDDCWMAPQRDSEGRLQADPQRFPHGIRQLANYVHSKGLKLGIYADVGNKTCAGFPGSFGYYDIDAQTFADWGVDLLKFDGCYCDSLENLADGYKHMSLALNRTGRSIVYSCEWPLYMWPFQKPNYTEIRQYCNHWRNFADIDDSWKSIKSILDWTSFNQERIVDVAGPGGWNDPDMLVIGNFGLSWNQQVTQMALWAIMAAPLFMSNDLRHISPQPKALLQDKDVIAINQDPLGKQGYQLRQGDNFEVWERPLSGLAWAVAMINRQEIGGPRSYTIAVASLGKGVACNPACFITQLLPVKRKLGFYEWTSRLRSHINPTGTVLLQLENTMQMSLKDLL
- Absolute increase (% WT): 12.3 % WT
- Relative increase: 1.4
- Baseline α-Gal A activity (% WT): 32.8 ± 1.7 % WT
- Baseline α-Gal A activity: 11388 ± 905 nmol/mg/h
- 10 μM migalastat α-Gal A activity: 15572 ± 1124 nmol/mg/h
- 10 μM migalastat α-Gal A activity (% WT): 45.2 ± 2.1 % WT

B4: A307D (protein)
chain: MQLRNPELHLGCALALRFLALVSWDIPGARALDNGLARTPTMGWLHWERFMCNLDCQEEPDSCISEKLFMEMAELMVSEGWKDAGYEYLCIDDCWMAPQRDSEGRLQADPQRFPHGIRQLANYVHSKGLKLGIYADVGNKTCAGFPGSFGYYDIDAQTFADWGVDLLKFDGCYCDSLENLADGYKHMSLALNRTGRSIVYSCEWPLYMWPFQKPNYTEIRQYCNHWRNFADIDDSWKSIKSILDWTSFNQERIVDVAGPGGWNDPDMLVIGNFGLSWNQQVTQMALWAIMAAPLFMSNDLRHISPQDKALLQDKDVIAINQDPLGKQGYQLRQGDNFEVWERPLSGLAWAVAMINRQEIGGPRSYTIAVASLGKGVACNPACFITQLLPVKRKLGFYEWTSRLRSHINPTGTVLLQLENTMQMSLKDLL
- Absolute increase (% WT): 35.9 % WT
- Relative increase: 1.3
- Baseline α-Gal A activity (% WT): 126 ± 5.7 % WT
- Baseline α-Gal A activity: 42522 ± 2430 nmol/mg/h
- 10 μM migalastat α-Gal A activity: 54502 ± 3031 nmol/mg/h
- 10 μM migalastat α-Gal A activity (% WT): 161.9 ± 8.6 % WT

B5: A307S (protein)
chain: MQLRNPELHLGCALALRFLALVSWDIPGARALDNGLARTPTMGWLHWERFMCNLDCQEEPDSCISEKLFMEMAELMVSEGWKDAGYEYLCIDDCWMAPQRDSEGRLQADPQRFPHGIRQLANYVHSKGLKLGIYADVGNKTCAGFPGSFGYYDIDAQTFADWGVDLLKFDGCYCDSLENLADGYKHMSLALNRTGRSIVYSCEWPLYMWPFQKPNYTEIRQYCNHWRNFADIDDSWKSIKSILDWTSFNQERIVDVAGPGGWNDPDMLVIGNFGLSWNQQVTQMALWAIMAAPLFMSNDLRHISPQSKALLQDKDVIAINQDPLGKQGYQLRQGDNFEVWERPLSGLAWAVAMINRQEIGGPRSYTIAVASLGKGVACNPACFITQLLPVKRKLGFYEWTSRLRSHINPTGTVLLQLENTMQMSLKDLL
- Absolute increase (% WT): 27.7 % WT
- Relative increase: 1.3
- Baseline α-Gal A activity (% WT): 85.9 ± 4.5 % WT
- Baseline α-Gal A activity: 29300 ± 2037 nmol/mg/h
- 10 μM migalastat α-Gal A activity: 38558 ± 2274 nmol/mg/h
- 10 μM migalastat α-Gal A activity (% WT): 113.6 ± 5.2 % WT

B6: A307V (protein)
chain: MQLRNPELHLGCALALRFLALVSWDIPGARALDNGLARTPTMGWLHWERFMCNLDCQEEPDSCISEKLFMEMAELMVSEGWKDAGYEYLCIDDCWMAPQRDSEGRLQADPQRFPHGIRQLANYVHSKGLKLGIYADVGNKTCAGFPGSFGYYDIDAQTFADWGVDLLKFDGCYCDSLENLADGYKHMSLALNRTGRSIVYSCEWPLYMWPFQKPNYTEIRQYCNHWRNFADIDDSWKSIKSILDWTSFNQERIVDVAGPGGWNDPDMLVIGNFGLSWNQQVTQMALWAIMAAPLFMSNDLRHISPQVKALLQDKDVIAINQDPLGKQGYQLRQGDNFEVWERPLSGLAWAVAMINRQEIGGPRSYTIAVASLGKGVACNPACFITQLLPVKRKLGFYEWTSRLRSHINPTGTVLLQLENTMQMSLKDLL
- Absolute increase (% WT): 34.7 % WT
- Relative increase: 2.3
- Baseline α-Gal A activity (% WT): 27.5 ± 2 % WT
- Baseline α-Gal A activity: 11478 ± 1200 nmol/mg/h
- 10 μM migalastat α-Gal A activity: 25989 ± 2015 nmol/mg/h
- 10 μM migalastat α-Gal A activity (% WT): 62.2 ± 3.3 % WT

B7: A307G (protein)
chain: MQLRNPELHLGCALALRFLALVSWDIPGARALDNGLARTPTMGWLHWERFMCNLDCQEEPDSCISEKLFMEMAELMVSEGWKDAGYEYLCIDDCWMAPQRDSEGRLQADPQRFPHGIRQLANYVHSKGLKLGIYADVGNKTCAGFPGSFGYYDIDAQTFADWGVDLLKFDGCYCDSLENLADGYKHMSLALNRTGRSIVYSCEWPLYMWPFQKPNYTEIRQYCNHWRNFADIDDSWKSIKSILDWTSFNQERIVDVAGPGGWNDPDMLVIGNFGLSWNQQVTQMALWAIMAAPLFMSNDLRHISPQGKALLQDKDVIAINQDPLGKQGYQLRQGDNFEVWERPLSGLAWAVAMINRQEIGGPRSYTIAVASLGKGVACNPACFITQLLPVKRKLGFYEWTSRLRSHINPTGTVLLQLENTMQMSLKDLL
- Absolute increase (% WT): 23.4 % WT
- Relative increase: 1.5
- Baseline α-Gal A activity (% WT): 52.9 ± 2.5 % WT
- Baseline α-Gal A activity: 17871 ± 1029 nmol/mg/h
- 10 μM migalastat α-Gal A activity: 26053 ± 1631 nmol/mg/h
- 10 μM migalastat α-Gal A activity (% WT): 76.3 ± 3.1 % WT

B8: K308I (protein)
chain: MQLRNPELHLGCALALRFLALVSWDIPGARALDNGLARTPTMGWLHWERFMCNLDCQEEPDSCISEKLFMEMAELMVSEGWKDAGYEYLCIDDCWMAPQRDSEGRLQADPQRFPHGIRQLANYVHSKGLKLGIYADVGNKTCAGFPGSFGYYDIDAQTFADWGVDLLKFDGCYCDSLENLADGYKHMSLALNRTGRSIVYSCEWPLYMWPFQKPNYTEIRQYCNHWRNFADIDDSWKSIKSILDWTSFNQERIVDVAGPGGWNDPDMLVIGNFGLSWNQQVTQMALWAIMAAPLFMSNDLRHISPQAIALLQDKDVIAINQDPLGKQGYQLRQGDNFEVWERPLSGLAWAVAMINRQEIGGPRSYTIAVASLGKGVACNPACFITQLLPVKRKLGFYEWTSRLRSHINPTGTVLLQLENTMQMSLKDLL
- Absolute increase (% WT): 24.2 % WT
- Relative increase: 1.5
- Baseline α-Gal A activity (% WT): 48.6 ± 3.9 % WT
- Baseline α-Gal A activity: 19195 ± 1555 nmol/mg/h
- 10 μM migalastat α-Gal A activity: 29251 ± 2026 nmol/mg/h
- 10 μM migalastat α-Gal A activity (% WT): 72.7 ± 3.6 % WT

B9: K308R (protein)
chain: MQLRNPELHLGCALALRFLALVSWDIPGARALDNGLARTPTMGWLHWERFMCNLDCQEEPDSCISEKLFMEMAELMVSEGWKDAGYEYLCIDDCWMAPQRDSEGRLQADPQRFPHGIRQLANYVHSKGLKLGIYADVGNKTCAGFPGSFGYYDIDAQTFADWGVDLLKFDGCYCDSLENLADGYKHMSLALNRTGRSIVYSCEWPLYMWPFQKPNYTEIRQYCNHWRNFADIDDSWKSIKSILDWTSFNQERIVDVAGPGGWNDPDMLVIGNFGLSWNQQVTQMALWAIMAAPLFMSNDLRHISPQARALLQDKDVIAINQDPLGKQGYQLRQGDNFEVWERPLSGLAWAVAMINRQEIGGPRSYTIAVASLGKGVACNPACFITQLLPVKRKLGFYEWTSRLRSHINPTGTVLLQLENTMQMSLKDLL
- Absolute increase (% WT): 20.3 % WT
- Relative increase: 1.3
- Baseline α-Gal A activity (% WT): 68.9 ± 4.3 % WT
- Baseline α-Gal A activity: 27103 ± 1767 nmol/mg/h
- 10 μM migalastat α-Gal A activity: 35824 ± 2438 nmol/mg/h
- 10 μM migalastat α-Gal A activity (% WT): 89.1 ± 4.5 % WT
